In PMC9098222:

Biological target: PIK3R2/p85β (UniProt O00459)
Experiment: anti-Myc IP, PIK3R2 immunoblot
Conditions: reference: Myc-IRS4 wild type; sites Y779

IRS4 (insulin receptor substrate 4) (from UniProt O14654) Myc-IRS4 Y779F
binding against the reference: weaker
